Reference: publication PMC4151990, “Tetrameric c-di-GMP Mediates Effective Transcription Factor Dimerization to Control Streptomyces Development” (Cell, 2014)

Assays:
[1] = biological target: His6-BldD-DBD (S. venezuelae BldD DNA-binding domain, residues 1-79) (Streptomyces venezuelae); test: cross-linking; 10 μM protein, 1 mM DSS, no c-di-GMP; 100 mM NaH2PO4, 150 mM NaCl, pH 8, room temperature 30 min; SDS-PAGE, Coomassie
[2] = system: T1, His6-BldD full length (Streptomyces venezuelae), ORF:0f1775d8; test: EMSA; conditions: EMSA: 10 mM Tris pH 7.5, 1 mM EDTA, 5% glycerol, 10 mM NaCl, 1 mM MgCl2, 0.5 ug poly[d(I-C)] in 20 ul, 20 min room temperature; 5% PAGE in 0.5x TBE
T1 sequence: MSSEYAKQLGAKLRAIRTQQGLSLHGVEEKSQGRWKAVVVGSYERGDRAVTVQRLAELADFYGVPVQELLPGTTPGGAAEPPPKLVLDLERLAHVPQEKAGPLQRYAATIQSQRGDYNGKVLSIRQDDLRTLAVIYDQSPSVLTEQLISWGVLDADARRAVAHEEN

[3] = biological target: T2, BldD (Streptomyces venezuelae, UniProt F2RCL8); test: fluorescence polarization; format: binding
T2 construct: gene SVEN_1089; CTD (residues 80-166), purified from Sf9 cells
T2 sequence (F2RCL8 80-166): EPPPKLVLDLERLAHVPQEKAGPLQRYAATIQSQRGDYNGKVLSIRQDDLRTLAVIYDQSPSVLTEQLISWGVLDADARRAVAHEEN

Substance	binding [2]	further results
His6-BldD-DBD (S. venezuelae BldD DNA-binding domain, residues 1-79) (domain or fragment)		stoichiometry N [1]: 2
CTAGCCACAGACACCGCGAAAAGGGAAGAAAACCCGCTAAATGGGGCATAGCTTTCGATGAACGACAGAAGGCTCGCGTCGCTCTCCTCTGTACGCGCCCCCTCACGTAGAGTGCCGAAGGGTGCCGTCCGACCCGTAACTCTTTCGAGTGACCGTCG (double strand) [bldM promoter fragment, 158 bp]	binds	
GTTCGAAGATGTGGCCGACGGCGTCCACCCGGAGCGGCGCTCTCCGCCGACGTTCGCGCACCGCGACCGCGCACTCACGCTACGCTCACCAGGATTCCGTCCAGGACACCCGCACCGACACACCCGACAGCAGAACGGCTCAAGGCAACGC (double strand) [whiG promoter fragment, 151 bp]	binds	
2′-O-(6-[Fluoresceinyl]aminohexylcarbamoyl)-cyclic diguanosine monophosphate [2′-Fluo-AHC-c-di-GMP]		Kd [3]: 2.5 ± 0.6 µM
